± gives the uncertainty stated by the source.

This data set can be described thus: abundance fitness (aPCA) (normalised: wild type 0, dead -1); higher = more abundant; growth selection in yeast, the domain comes from the species named. To be noted: Homo sapiens.
For the substance “Lipoamide acyltransferase component of branched-chain alpha-keto acid dehydrogenase complex, mitochondrial G195V, P11182”, the abundance fitness is -0.702 ± 0.059.
“Lipoamide acyltransferase component of branched-chain alpha-keto acid dehydrogenase complex, mitochondrial G195W, P11182” came in with an abundance fitness of -1.25 ± 0.11.
“Lipoamide acyltransferase component of branched-chain alpha-keto acid dehydrogenase complex, mitochondrial G195Y, P11182” returned an abundance fitness of -0.977 ± 0.35.
“Lipoamide acyltransferase component of branched-chain alpha-keto acid dehydrogenase complex, mitochondrial G198A, P11182” came in with an abundance fitness of -0.517 ± 0.044.
“Lipoamide acyltransferase component of branched-chain alpha-keto acid dehydrogenase complex, mitochondrial G198C, P11182”: the abundance fitness was -0.666 ± 0.14.
Turning to “Lipoamide acyltransferase component of branched-chain alpha-keto acid dehydrogenase complex, mitochondrial G198D, P11182”, the abundance fitness is -0.341 ± 0.11.
Consider “Lipoamide acyltransferase component of branched-chain alpha-keto acid dehydrogenase complex, mitochondrial G198E, P11182”, for which the abundance fitness is -0.506 ± 0.052.
On to “Lipoamide acyltransferase component of branched-chain alpha-keto acid dehydrogenase complex, mitochondrial G198F, P11182”, for which the abundance fitness was -0.771 ± 0.25.
Turning to “Lipoamide acyltransferase component of branched-chain alpha-keto acid dehydrogenase complex, mitochondrial G198H, P11182”, the abundance fitness is -0.267 ± 0.062.
“Lipoamide acyltransferase component of branched-chain alpha-keto acid dehydrogenase complex, mitochondrial G198I, P11182” gave an abundance fitness of -1.24 ± 0.23.
Substance “Lipoamide acyltransferase component of branched-chain alpha-keto acid dehydrogenase complex, mitochondrial G198K, P11182” returned an abundance fitness of -0.406 ± 0.18.
In turn, “Lipoamide acyltransferase component of branched-chain alpha-keto acid dehydrogenase complex, mitochondrial G198M, P11182” had an abundance fitness of -0.57 ± 0.1.
Take “Lipoamide acyltransferase component of branched-chain alpha-keto acid dehydrogenase complex, mitochondrial G198P, P11182”: the abundance fitness was -0.776 ± 0.097.
The figure for “Lipoamide acyltransferase component of branched-chain alpha-keto acid dehydrogenase complex, mitochondrial G198Q, P11182” is -0.301 ± 0.051; for “Lipoamide acyltransferase component of branched-chain alpha-keto acid dehydrogenase complex, mitochondrial G198R, P11182” it is -0.514 ± 0.044.
With “Lipoamide acyltransferase component of branched-chain alpha-keto acid dehydrogenase complex, mitochondrial G198S, P11182”, the abundance fitness was -0.412 ± 0.04.
The figure for “Lipoamide acyltransferase component of branched-chain alpha-keto acid dehydrogenase complex, mitochondrial G198T, P11182” is -0.647 ± 0.078.
Substance “Lipoamide acyltransferase component of branched-chain alpha-keto acid dehydrogenase complex, mitochondrial G198V, P11182” came in with an abundance fitness of -1.04 ± 0.085.
“Lipoamide acyltransferase component of branched-chain alpha-keto acid dehydrogenase complex, mitochondrial G198W, P11182” gave an abundance fitness of -0.982 ± 0.16.
Substance “Lipoamide acyltransferase component of branched-chain alpha-keto acid dehydrogenase complex, mitochondrial G214A, P11182” gave an abundance fitness of 0.014 ± 0.054.
Take “Lipoamide acyltransferase component of branched-chain alpha-keto acid dehydrogenase complex, mitochondrial G214C, P11182”: the abundance fitness was -0.066 ± 0.057.
“Lipoamide acyltransferase component of branched-chain alpha-keto acid dehydrogenase complex, mitochondrial G214D, P11182”: the abundance fitness was -0.041 ± 0.071.
The figure for “Lipoamide acyltransferase component of branched-chain alpha-keto acid dehydrogenase complex, mitochondrial G214E, P11182” is 0.135 ± 0.12.
The substance “Lipoamide acyltransferase component of branched-chain alpha-keto acid dehydrogenase complex, mitochondrial G214H, P11182” gave an abundance fitness of 0.016 ± 0.17.
The figure for “Lipoamide acyltransferase component of branched-chain alpha-keto acid dehydrogenase complex, mitochondrial G214K, P11182” is 0.129 ± 0.076.
As for “Lipoamide acyltransferase component of branched-chain alpha-keto acid dehydrogenase complex, mitochondrial G214M, P11182”, the abundance fitness is -0.154 ± 0.23.
The figure for “Lipoamide acyltransferase component of branched-chain alpha-keto acid dehydrogenase complex, mitochondrial G214N, P11182” is -0.41 ± 0.18; for “Lipoamide acyltransferase component of branched-chain alpha-keto acid dehydrogenase complex, mitochondrial G214P, P11182” it is -0.474 ± 0.2; for “Lipoamide acyltransferase component of branched-chain alpha-keto acid dehydrogenase complex, mitochondrial G214Q, P11182” it is 0.133 ± 0.074.
As to “Lipoamide acyltransferase component of branched-chain alpha-keto acid dehydrogenase complex, mitochondrial G214R, P11182”, the abundance fitness is -0.002 ± 0.039.
In turn, “Lipoamide acyltransferase component of branched-chain alpha-keto acid dehydrogenase complex, mitochondrial G214S, P11182” came in with an abundance fitness of -0.028 ± 0.078.
“Lipoamide acyltransferase component of branched-chain alpha-keto acid dehydrogenase complex, mitochondrial G214T, P11182” displayed an abundance fitness of -0.034 ± 0.13.
With “Lipoamide acyltransferase component of branched-chain alpha-keto acid dehydrogenase complex, mitochondrial G214V, P11182”, the abundance fitness is -0.08 ± 0.065.
The figure for “Lipoamide acyltransferase component of branched-chain alpha-keto acid dehydrogenase complex, mitochondrial G214W, P11182” is -0.315 ± 0.054; for “Lipoamide acyltransferase component of branched-chain alpha-keto acid dehydrogenase complex, mitochondrial G214Y, P11182” it is -0.189 ± 0.12.
“Lipoamide acyltransferase component of branched-chain alpha-keto acid dehydrogenase complex, mitochondrial I186A, P11182” registered an abundance fitness of -0.555 ± 0.044.
“Lipoamide acyltransferase component of branched-chain alpha-keto acid dehydrogenase complex, mitochondrial I186C, P11182” returned an abundance fitness of -0.239 ± 0.074.
“Lipoamide acyltransferase component of branched-chain alpha-keto acid dehydrogenase complex, mitochondrial I186D, P11182” displayed an abundance fitness of -0.81 ± 0.077.
The substance “Lipoamide acyltransferase component of branched-chain alpha-keto acid dehydrogenase complex, mitochondrial I186E, P11182” gave an abundance fitness of -0.543 ± 0.065.
The result for “Lipoamide acyltransferase component of branched-chain alpha-keto acid dehydrogenase complex, mitochondrial I186F, P11182” reads -0.9 ± 0.18; that for “Lipoamide acyltransferase component of branched-chain alpha-keto acid dehydrogenase complex, mitochondrial I186G, P11182”, -0.748 ± 0.042; that for “Lipoamide acyltransferase component of branched-chain alpha-keto acid dehydrogenase complex, mitochondrial I186H, P11182”, -0.679 ± 0.091.
In turn, “Lipoamide acyltransferase component of branched-chain alpha-keto acid dehydrogenase complex, mitochondrial I186K, P11182” showed an abundance fitness of -0.533 ± 0.4.
Substance “Lipoamide acyltransferase component of branched-chain alpha-keto acid dehydrogenase complex, mitochondrial I186L, P11182” displayed an abundance fitness of -0.32 ± 0.057.
As for “Lipoamide acyltransferase component of branched-chain alpha-keto acid dehydrogenase complex, mitochondrial I186M, P11182”, the abundance fitness is -0.419 ± 0.069.
Turning to “Lipoamide acyltransferase component of branched-chain alpha-keto acid dehydrogenase complex, mitochondrial I186N, P11182”, the abundance fitness is -0.735 ± 0.097.

The values are drawn from the Human Domainome abundance scans (Beltran et al. 2025).
